This is an account of results in paper PMC314469, “Protein Interaction Networks by Proteome Peptide Scanning” (PLoS Biology, 2004).

This assay addresses T1, GST-Abp1 SH3 domain (S. cerevisiae, UniProt P15891 532-592).
T1 construct: SH3 domain of Abp1, S. cerevisiae
T1 sequence (looked up): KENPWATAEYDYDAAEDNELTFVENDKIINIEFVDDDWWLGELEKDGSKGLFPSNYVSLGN
Description: SPR; BIAcoreX; GST-fused SH3 domains (and GST as control) amine-coupled to CM5 chips; peptides flowed at 25°C in 10 mM HEPES, 150 mM NaCl, 3.4 mM EDTA, 0.005% P20, pH 7.4, 15 μl/min, 500 μM to 65 nM; steady-state model. The settings on record: both partners purified. For orientation: SPR reads the build-up and loss of mass on a sensor chip optically.

Some results are limits rather than exact numbers.

B1: Ynl094w peptide RRPPPPPIPSTQKP (peptide)
peptide: RRPPPPPIPSTQKP
notes: stretch of Ynl094w, S. cerevisiae; also called tetradecapeptide in the Ynl094w protein
One may read the Kd as the equilibrium constant for the complex coming apart. For the molecule B1, the Kd was ≥ 100 µM.
